Values quoted from earlier work as cited in paper PMC8622359.
Read-outs that look alike come from different tables or passages of the source.

Experiments:
[1] = biological target: ScSFI1 (R18) (Saccharomyces cerevisiae); assay: given as Ka
[2] = biological target: SAC3 (Saccharomyces cerevisiae) (UniProt P46674)
[3] = biological target: ScSFI1 (R18) (Saccharomyces cerevisiae); assay: given as Ka; remark: listed apart in the source
[4] = biological target: KAR1 (Saccharomyces cerevisiae) (UniProt P11927); assay: given as Ka
[5] = biological target: ScSFI1 (R19) (Saccharomyces cerevisiae); assay: given as Ka
Chain of ScSFI1 (R19) (Saccharomyces cerevisiae) (Q12369 710-729): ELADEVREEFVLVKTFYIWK

[6] = biological target: SAC3 (Saccharomyces cerevisiae); assay: given as Ka
[7] = biological target: SAC3 (Saccharomyces cerevisiae) (UniProt P46674); assay: given as Ka
[8] = biological target: SAC3 (Saccharomyces cerevisiae) (UniProt P46674); remark: listed apart in the source
[9] = biological target: KAR1 (Saccharomyces cerevisiae) (UniProt P11927); assay: given as Ka; remark: listed apart in the source
[10] = biological target: ScSFI1 (R19) (Saccharomyces cerevisiae); assay: given as Ka; remark: listed apart in the source
[11] = biological target: Transducin β (Homo sapiens) (UniProt P62873); assay: given as Ka
[12] = biological target: HsSFI1 (R18) (Homo sapiens); assay: given as Ka
Chain of HsSFI1 (R18) (Homo sapiens) (A8K8P3 670-692): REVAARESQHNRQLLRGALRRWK

[13] = biological target: HsSFI1 (R18) (Homo sapiens); assay: given as Ka; remark: listed apart in the source
[14] = biological target: AtRAD4 (Arabidopsis thaliana)
[15] = biological target: SAC3B (Arabidopsis thaliana) (UniProt F4JAU2); assay: given as Ka
Chain of SAC3B (Arabidopsis thaliana) (F4JAU2 1050-1075): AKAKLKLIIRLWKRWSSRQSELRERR

[16] = biological target: AtRAD4 (Arabidopsis thaliana); remark: listed apart in the source
[17] = biological target: SAC3B (Arabidopsis thaliana) (UniProt F4JAU2); assay: given as Ka; remark: listed apart in the source
XPC (Homo sapiens) [18] = assay: given as Ka
[19] = biological target: HsSFI1 (R17) (Homo sapiens); assay: given as Ka
Chain of HsSFI1 (R17) (Homo sapiens) (A8K8P3 641-660): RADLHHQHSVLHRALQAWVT

PRP40A (Homo sapiens) = PRP40A (Homo sapiens) (UniProt O75400); assay: given as Ka
Chain of PRP40A (Homo sapiens) (O75400 524-556): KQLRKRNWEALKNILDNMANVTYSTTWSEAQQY

[20] = biological target: HsSFI1 (R17) (Homo sapiens); assay: given as Ka; remark: listed apart in the source
XPC (Homo sapiens) [21] = assay: given as Ka; remark: listed apart in the source

Chain of HsCEN2 (P41208 2-172): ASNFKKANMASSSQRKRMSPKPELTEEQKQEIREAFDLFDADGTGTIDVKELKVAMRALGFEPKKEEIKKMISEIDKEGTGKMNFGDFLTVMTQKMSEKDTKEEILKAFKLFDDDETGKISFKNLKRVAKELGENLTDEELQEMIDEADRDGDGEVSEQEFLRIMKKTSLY
Chain of AtCEN2 (O23184 whole entry): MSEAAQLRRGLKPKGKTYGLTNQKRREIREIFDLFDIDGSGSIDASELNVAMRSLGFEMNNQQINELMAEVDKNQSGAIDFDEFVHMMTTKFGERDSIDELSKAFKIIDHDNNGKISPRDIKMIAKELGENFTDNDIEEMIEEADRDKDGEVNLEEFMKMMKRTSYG
Chain of CDC31 (P06704 whole entry): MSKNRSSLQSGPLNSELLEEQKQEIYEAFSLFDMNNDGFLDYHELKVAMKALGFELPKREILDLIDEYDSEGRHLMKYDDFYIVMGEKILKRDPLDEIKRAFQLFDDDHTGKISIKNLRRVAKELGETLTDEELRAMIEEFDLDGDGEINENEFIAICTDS
Chain of HsCEN1 (Q12798 whole entry): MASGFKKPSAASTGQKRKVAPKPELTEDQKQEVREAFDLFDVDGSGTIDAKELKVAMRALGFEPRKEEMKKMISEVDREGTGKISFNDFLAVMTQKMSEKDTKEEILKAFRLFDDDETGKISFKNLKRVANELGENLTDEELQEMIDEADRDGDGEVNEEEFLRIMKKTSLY
Chain of ScSFI1 (R18) (Saccharomyces cerevisiae) (Q12369 680-699): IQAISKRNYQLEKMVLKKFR

For CDC31 (from UniProt P06704), the Kd [1] is given as 4170 nM, the Kd [2] is given as 677 nM and the Kd [3] is given as 100 nM. The Kd [4] was 43.5 nM, the Kd [5] was 5260 nM and the Kd [6] was 45.5 nM. For the same substance, the Kd [7] was 667 nM, the Kd [8] was 45 nM and the Kd [9] was 2270 nM. For the same substance, the Kd [10] was 28.6 nM.

For HsCEN1 (from UniProt Q12798), the Kd [11] is given as 5880 nM, the Kd [12] is given as 831 nM and the Kd [13] is given as 333000 nM.

For AtCEN2 (from UniProt O23184), the Kd [14] is given as 54 nM, the Kd [15] is given as 2440 nM and the Kd [16] is given as 8000 nM. For the same substance, the Kd [17] was 667 nM.

For HsCEN2 (from UniProt P41208), the Kd (XPC (Homo sapiens) [18]) is listed as 125 nM, the Kd [19] is listed as 4000 nM and the Kd (PRP40A (Homo sapiens)) is listed as 278 nM. For the same substance, the Kd [20] was 154 nM and the Kd (XPC (Homo sapiens) [21]) was 5.88 nM.
